The values that follow come from patent publication US20050221288A1.

Assay [1] has as its target endogenous P-TEFb complex (positive transcription elongation factor b) (UniProt P50750). Kind of assay: cell-based or functional assay.
For assay [2] the target is unchanged. Kind of assay: GST pull-down of endogenous P-TEFb from cell extract, read out by the Tat-associated kinase assay.

Chain of UniProt P50750 (P50750 whole entry, chain 1 of 2): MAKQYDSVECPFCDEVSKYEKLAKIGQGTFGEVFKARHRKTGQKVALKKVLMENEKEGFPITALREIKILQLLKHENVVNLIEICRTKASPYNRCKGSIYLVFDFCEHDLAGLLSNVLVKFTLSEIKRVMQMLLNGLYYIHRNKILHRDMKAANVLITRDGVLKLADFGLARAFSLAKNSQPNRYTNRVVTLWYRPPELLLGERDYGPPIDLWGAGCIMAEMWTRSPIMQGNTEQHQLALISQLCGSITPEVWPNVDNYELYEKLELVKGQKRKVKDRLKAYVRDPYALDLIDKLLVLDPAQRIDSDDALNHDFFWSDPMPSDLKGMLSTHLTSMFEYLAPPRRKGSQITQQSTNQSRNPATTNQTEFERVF
Chain of UniProt P50750 (O60563 whole entry, chain 2 of 2, further chain): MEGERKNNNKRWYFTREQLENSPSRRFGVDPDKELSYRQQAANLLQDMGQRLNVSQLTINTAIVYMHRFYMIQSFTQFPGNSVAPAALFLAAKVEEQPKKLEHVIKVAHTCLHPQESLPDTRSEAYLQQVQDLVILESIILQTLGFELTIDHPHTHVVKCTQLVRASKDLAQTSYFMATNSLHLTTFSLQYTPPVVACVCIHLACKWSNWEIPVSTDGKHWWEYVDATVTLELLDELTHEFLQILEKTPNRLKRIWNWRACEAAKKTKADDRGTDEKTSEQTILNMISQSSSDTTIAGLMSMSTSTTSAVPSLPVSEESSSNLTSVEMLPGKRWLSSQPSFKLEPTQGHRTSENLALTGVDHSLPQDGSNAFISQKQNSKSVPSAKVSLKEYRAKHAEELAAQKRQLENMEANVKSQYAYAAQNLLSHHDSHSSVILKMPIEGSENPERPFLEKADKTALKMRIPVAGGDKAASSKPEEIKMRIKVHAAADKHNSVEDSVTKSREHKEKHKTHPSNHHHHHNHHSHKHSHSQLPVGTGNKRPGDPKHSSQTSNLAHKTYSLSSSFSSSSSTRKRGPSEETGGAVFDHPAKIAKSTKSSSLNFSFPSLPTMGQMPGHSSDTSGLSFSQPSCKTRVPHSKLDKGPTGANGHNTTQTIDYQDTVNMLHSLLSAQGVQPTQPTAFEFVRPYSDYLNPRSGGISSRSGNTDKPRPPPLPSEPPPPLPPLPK

Regarding “GST-Tat T23N (1-72) (from UniProt P04608 1-72)”, in assay [1], the extent of CTD phosphorylation (Tat-associated kinase assay after GST pull-down; U937 or 293 cell extract) (fold over wild-type Tat) amounted to 3.5. Besides, the fold stronger binding than wild-type Tat in assay [2] worked out at 3.5 fold.
